In a protein production outcome set (Wang et al. 2014):

Experiment: label from the status in PepcDB records

Sequence	protein production
MKKPSSTPAPRLASLDILRGFDLFLLVFFQPVLWTLAHQLNLPWLNSILFQFDHEVWEGFRFWDLVMPLFLFMTGASMPFSFSKFKDNPDKGPVYRKIIKRFILLFIFGMIVQGNLLGLDPKHLYLYSNTLQAIATGYLIAAIIQLHCNFRWQLIVTALLLLIYWIPMTFLGDFTPEGNFAEKVDRLVLGHFRDGVFWNEDGSWSFSAHYNYTWIWSSLTFGATVMLGAFAGKIMKAGKDNRRKVVQTLLIIGISLIAFSLIWSLQMPIIKRLWTSSMTLFSGGLCFLLMGAFYYRIDYKGHSRGLNWLKIYGMNSITAYILGEVINFRCIAASVSYGLEQYLGGYYQVWLSFANYLIVFLILRIMYRQKIFLKI	failed
AVGKNKGLSKGGKKGGKKKVVDPFSRKDWYDVKAPNMFQTRQIGKTLVNRTQGQRIASDYLKGRVFEVSLADLQKDIDPERSFRKFRLIAEDVQDRNVLCNFHGMDLTTDKYRSMVKKWQTLIEAIVEAKTVDGYLLRVFCIGFTAKDQQSQRKTCYAQQSQVRKIRARMTDIITNEVSGADLKQLVNKLALDSIAKDIEKSCQRIYPLHDVYIRKVKVLKKPRFDVSKLLELHGDGGGKSVEAVVSSEGAVIDRPEGYEPPVQESV	failed
MSERAIAHLGPVGTYAEMAALRFQAWLTQQDQQPSRLLACRSIPATLQTLADGAVDYAVVPVENSVEGSVAATLDSLWQLPQLSIQRALILPIAHALISFESDRTAIRQVLSHPQALAQCQQWLQRHLPQAELIPANSTTEALQDLERHPQRAVIASTRAAELYQMPIQSFPINDSPDNRTRFWVISRSPTPGGACTSLNFSLDANVPGALVKPLQILADRRINLSRIESRPTKRSLGEYLFFLDLEADLRDPAIAAAVQAVADCTEQLRVLGSYDSLDFTQSVLVPAQAR	failed
MSQSNSNHSPQEQWQQAVLTYARDINRYVETGNRDGWKGLKEPHLPDTEHLLPDWQAALEASNQEPYDAARRQAFRQEWPPAHFPLSPRLESQGRMIPTLALLPDGSLLARIGAPYEAGEVVHIDDARIQPLEQVEGFGMCPQRRYFAWARADGIQLTDGWNGPEVASFAWPDPHANLPAGVALEDTGRPRPSSLIPFPDGRRVLLVSSDGIFVLQAEGATRLLPSLEDLQQELADGVAPEDLGIGLSMEHGAVSPDGQWIAVGEQSSSHLVFDARLQRVAQIGPASEYPHFAHFNQRGDRLLLNACHFYGGASVGVAVADLPGLSTDFYSDDARTPVLQEGARVYAAASRGDEFIIGDAYGYLRAFSENGEERWQHYIGSTLTAMDISPDGKTLVAATYAGIIVKLDLDAGRPDWQIGTGEHLEVQRWLFWKDFAKPLLW	failed
MSGNSDEATAPGADWDALAASFDDEPDHGLRDAEVRRAWAARLASWLPAPPGDVLDLGCGTGSLSLLAAEQGHRVTGVDLSPAMVELARTKLAGRDAVFLTGDAAAPPVGEQRFDAVLVRHVLWTLPDPGRALRHWRQLLRPGGRLVLVEGVWGSVSPVGIPADRVTALLGPLTGQARVERLSDDPSLWGREVADERYAVVATYG	failed
MPNNHDVNPYGIAFVPAGLPAGSALQAGDVVVSNFNAASNKQGTGTTIVKLVTDGKPVTFFQGQNLGLTTALAVLKSGYVLVGNLPTTNGATITSTGSLLVITPQGKLLSELKDPTLLDGPWDMTVIIDNGQQVTAFVSNVLNGTVARIDLNIGPNGATLLQSSHLIASGYAHRPDPAALVVGPTGLAYDAAHDMLYVASTNDNKVFAIAGAAALAHDNGPGSVIYQDSNHLRGPLALALAPNGDLVTANGDAINPDPNQSSEIVEFTPDGRFVAQMQVDPAPGSAFGLAFGLSSSGQPQFAAVNDSTNTAIVWTLRPVGGN	failed
MEDFYLNSRGLAGYFEAQWFDKFVEDKQVDAITSESKLVPLSFAKSSHCSQVADFITQAVSKNGKPPHALLGVGAALGRNYYELVQRLDSLKQATLVEPSGMLLNGLKQLLVEEQQVELTYIHGLNTLKTVEVDNRELVQNCAHVDLELINQPLEKDTVSKFYDLVVCLNVLDQCESPLRVINALKQATQIGGVLVVSCTYQWNAKHIKDRAEAVDDIKAYFGEDWRFVSEAEHEYRMRFNERYAMQFLSHVVAYVRTT	failed
MKERRAPQPVVARCKLVLVGDVQCGKTAMLQVLAKDCYPETYVPTVFENYTACLETEEQRVELSLWDTSGSPYYDNVRPLCYSDSDAVLLCFDISRPETVDSALKKWRTEILDYCPSTRVLLIGCKTDLRTDLSTLMELSHQKQAPISYEQGCAIAKQLGAEIYLEGSAFTSEKSIHSIFRTASMLCLNKPSPLPQKSPVRSLSKRLLHLPSRSELISSTFKKEKAKSCSIM	failed
MDAAKRGFPPVVDAKTCVLILGSLPGDASLAAGQYYGHPRNAFWRLMEGVIDAPLVVRAYEDRLVTLLAHGVGLWDVIETARRPGSLDAAIREPAANDLMALIDTLPALRLVAFNGGTAGRLGGRLIGTRVSTLALPSSSPAYAARTFAQKAAAWAALRDGLADTYSRPHPEPVEGPGRPPRRGRPAPRQP	failed
YCEFLNNELRAHASDLLPTAPVPTMMLDRAWDEATLHNITQLIYDVRKDDALFRREISKPGAFDLMRKNYWDRREYSAVTLVGNETCNLAPLAELGFQIEVSQ	failed
MVNPIVVAAKQGQWQLVQEYLFAAASDQVNQRDERGLTVLMYAVASLEMTTVKQLLQAGADPNRSRPPHGITPLMLLAGLQSNPNNPEKNPVQQAIAAMLMEFGAEVNQGNDDGTTALMMAAYRNNLPLVETLLAGGARAKIQDQQGTTALEWAIKQQNLSMVRKLIEHHAPLDLSDGDGNLPLTLAIKTGDRVIVDYLLQAGAPWDQNGWFTAVEEGNVDQVKAFIQGGYPLTQAGDGGDTALHIACLEGYQSMVTILLEKGPKDMVNAVNQAGDTALHLAIAQGHVEIVTQLLNAGADGNFSSNGEPPLLTALTATHGNAQTQAVMVNALGRAGVDLDQTLWEGKTPLMLAAMANLAAVITTIANYSVQVNRGDPNGSTALMWACHRGHGAAVEALLTNFPALDLNLKNQGGQTALDLARLNHHGAIVALLESYISRSA	failed
MMVAVFWISFLLLAYIYFGYPVCIRLLASARPLPVNKSGAYQPKVSILIAAYNEAKDIEATLRNKLALDYPREQLEILVVSDESEDGTDEIVQAVAADAPFPVKLFRQVPRQGKTAGLNMLKQHAEGEILAFSDANSEWDQQALKALVSNFNDPAVGYVTGKMVYVNPEGALIGDGCSAYMKYENWLRAQETLVGSVVGVDGGIDAMRKELHSELNADQLPDFVQPLKVVEQGYRVVYEPGALLKEEALSDGGSEFSMRVRVSLRALWALKDMKQLMSPANDPVFAWQLISHKLLRYAAFAPMITLAIAALYLAPVKGLYALAAIGYGLFLYFAWAGYQKESRGQSLSTMYALPYYFVLLNLASFKAFVAFAKGEKKVVWNPRKG	failed
MISALDSIPEPQNFAPSPDFKWLCEELFVKIHEVQINGTAGTGKSRSFKYYEIISNFVEMWRKTVGNNIYPALVLALPYRDRRIYNIKDYVLIRTICSYLKLPKNSATEQRLKDWKQRVGKGGNLSSLLVEEIAKRRAEPSSKAITIDNVNHYLDSLSGDRFASGRGFKSLVKSKPFLHCVENMSFVELKYFFDIVLKNRVIGGQEHKLLNCWHPDAQDYLSVISDLKVVTSKLYDPKVRLKDDDLSIKVGFAFAPQLAKKVNLSYEKICRTLHDDFLVEEKMDGERIQVHYMNYGESIKFFSRRGIDYTYLYGASLSSGTISQHLRFTDSVKECVLDGEMVTFDAKRRVILPFGLVKGSAKEALSFNSINNVDFHPLYMVFDLLYLNGTSLTPLPLHQRKQYLNSILSPLKNIVEIVRSSRCYGVESIKKSLEVAISLGSEGVVLKYYNSSYNVASRNNNWIKVKPEYLEEFGENLDLIVIGRDSGKKDSFMLGLLVLDEEEYKKHQGDSSEIVDHSSQEKHIQNSRRRVKKILSFCSIANGISQEEFKEIDRKTRGHWKRTSEVAPPASILEFGSKIPAEWIDPSESIVLEIKSRSLDNTETNMQKYATNCTLYGGYCKRIRYDKEWTDCYTLNDLYESRTVKSNPSYQAERSQLGLIRKKRKRVLISDSFHQNRKQLPISNIFAGLLFYVLSDYVTEDTGIRITRAELEKTIVEHGGKLIYNVILKRHSIGDVRLISCKTTTECKALIDRGYDILHPNWVLDCIAYKRLILIEPNYCFNVSQKMRAVAEKRVDCLGDSFENDISETKLSSLYKSQLSLPPMGELEIDSEVRRFPLFLFSNRIAYVPRRKISTEDDIIEMKIKLFGGKITDQQSLCNLIIIPYTDPILRKDCMNEVHEKIKEQIKASDTIPKIARVVAPEWVDHSINENCQVPEEDFPVVNY	failed
MEEMGSRSDTIMVASLNRETKEIKLVSVYRDTLLQLSDGTYNKANAAYAYGGEEEAVAMLNKNLDLNIEHYVSVDFSVLVHVIDALGGIDINVEEAENGMDIIPYLNNYVVEVIKNTGVDSAPFTQLGQQHLNGVQATAYARLRYGGGDDYKRTERQRQVLEQIAIKAQKAKLSTINKIIDKVFDNVKTNFTLTETIAYAKDVKSYIFGETQGFPYESTTADLDVGNSVVATDLASDVTKLHQFLFGENDYTPSSTVQSISEDISNSTYDTGESYDTEYDEYGYSQDYSGYDSGYTDNSYGTGGYQDSGYGDGSSGNGYTEDTGGDYVPPSDGGGTDSGSSDSNSQIPDTGTGDSGDTGGESLELEHHHHHH	not failed
MIKGTGHMIVNIANDRGMSIDSIRKTIKESVLIAYKKYFGSNENAFIKFDDDTGDLSVYAKKKIVKEVKDSLLEILEKDISKENIVEGDYAYIEINPKVFDRLSIQVAKQRTKNDLQGIEDNEILSEFKSKLNKVVIGYVQQNRNGDLYVNLGNTDGIIPKKYQSPREVYNLNDKIRVLVYNVKKGKNGIEVILSRTHPKFIEELLALEIPEIEEGIIKIHKIVRDPGYRIKVAVYSEKEEIDPVGPCIGQKGVRIQSIIKELEGEKIDIIPYSKDIKEFIKDSLTPSKIEHVYILDEDLHKALVVVSDDQLSLAIGKMGQNVRLANRLLDWAIDVKTSSQFAEMKANSEFKQETLEMFDKVMQDVVEEEQFEEISKISDLKLLDPSVISNLSKEGFDDINNFLQADEGVLFNLGVSYEKQEEINKILKEGMIIIANDNDESMEKVEEDEELLCPECGVVINENMTSCPGCKIGLSFEFEEE	failed
MTMTLHTKASGMALLHQIQGNELEPLNRPQLKIPLERPLGEVYLDSSKPAVYNYPEGAAYEFNAAAAANAQVYGQTGLPYGPGSEAAAFGSNGLGGFPPLNSVSPSPLMLLHPPPQLSPFLQPHGQQVPYYLENEPSGYTVREAGPPAFYRPNSDNRRQGGRERLASTNDKGSMAMESAKETRYCAVCNDYASGYHYGVWSCEGCKAFFKRSIQGHNDYMCPATNQCTIDKNRRKSCQACRLRKCYEVGMMKGGIRKDRRGGRMLKHKRQRDDGEGRGEVGSAGDMRAANLWPSPLMIKRSKKNSLALSLTADQMVSALLDAEPPILYSEYDPTRPFSEASMMGLLTNLADRELVHMINWAKRVPGFVDLTLHDQVHLLECAWLEILMIGLVWRSMEHPVKLLFAPNLLLDRNQGKCVEGMVEIFDMLLATSSRFRMMNLQGEEFVCLKSIILLNSGVYTFLSSTLKSLEEKDHIHRVLDKITDTLIHLMAKAGLTLQQQHQRLAQLLLILSHIRHMSNKGMEHLYSMKCKNVVPLYDLLLEMLDAHRLHAPTSRGGASVEETDQSHLATAGSTSSHSLQKYYITGEAEGFPATV	not failed
MVRETYALLTGLFVVILGSALIGIALVLGDYGTERDVYVVSTQGAVSGLNPESLVIFRGVRAGKVASISFAPHDPRTILVRIEVDKGLPITRGTYATLRVQPLTGLAQIDLSDEGNDPEPLRTDPRNPANIPLRPSLLDKLTGSGSDILTQIAQLTSRLNALLDDGNRQRIAHTLESLDTAADELVRLERYIEEGLERIPILDGRLRQALADHSAMARDVRETSRQVRALSESAQKVVDIGAAASDTLIRSRLPELDALIDDAAHTAASLRRLSKTLERDPQTLLLGPAPGLPGPGEPGFQEPK	failed
MLEYKKILVPVEGSPKGELALKKAIFVAKRNHAHLDILTVIQSSRFLDVYGHMGSNMDYVEVSLRRAKEYVEDLKDQIKRKYDFEDVEVYVEAGDPKAIIATEMPEKLGTDLIMMGATGLNAFQRAMIGSVADYVTRVALMDVLLVRTELDNLPYSK	failed
